From the nanobody polyreactivity screen of Harvey et al. (2022)

Experiment: yeast display, Sf9 membrane polyspecificity reagent, FACS + sequencing; frameworks hold sequencing errors
In short: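 A nanobody's polyreactivity label depends on the gate it was sorted from. Yeast display cells were stained with 10% biotinylated, detergent-solubilized Sf9 membrane reagent for 1 hour at 4 °C, enriched on streptavidin microbeads and sorted by FACS. The low and high (top ~1%) gates were set on anti-HA fluorescence for expression and streptavidin fluorescence for reagent binding.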

Sequence | polyreactivity (PSR sort gate)
QVQLLESGGGLVQAGGSLRLSCADSGSIFPKNAIGWYRQAPGKERELVAGITSRTGRTYYADSVKGRFTISRDNSKNTVYLQMNRLKPEDTAVYYCAARIGGGPVKYDYWGQGTQVTVSS | high polyreactivity
QVQLLESGGGLVQAGGSLRLSCAHSGLIIWANAMGWYRQAPGKESEMVAAISGSGGRTYYADSVKGRFSISRDNAKNTVYLEMNSLIPEDTAVYFCAAKVSAWKKKSEMNYWGQGTQVTVSS | high polyreactivity
QVQLLESGGGLVQAGGSLRLSCDASGITFGPNAMGWYRQAPGKERELVATISSSGGSTYYSDSVKGRFTISRDNAKNTVLLQMKSLKPEDTAVYYCNSGFDPYLGAYDYWGQGTQVTVSS | low polyreactivity
QVQLLESGGGLVQAGGSLRLTCAASGSTFDYYAMGWYRQAPGKERELVATISYNDDTTYYADSVKGRFTISRDNAKNTVYLQMNSLKPEDTAVYYCNAEVYGGRYYVDMYYWGQGTQVTVSS | low polyreactivity
QVQLLESGGGLVQAGGSLSLSCAASGSTFKHYAMGWYRQAPGKERELVAAISSRGGSTHYADSVKGRFTISRDNAKNTVYLQMNSLKREDTAVYYCARDTDPQSSRSSDYDYWGQGTQVSVSS | low polyreactivity
QVQLLESGGGLVQAGGSRRLSCAASGRTFIFNAMGWYRQAPGKETELVAAISSGGGTNYADSEKGRFTISRDNAKNTVYLQMNSLKPEDTAVYYCARGSYKYRHSYDYWGQGTEVTVSS | low polyreactivity
QVQLLESGGGLVQAGGTLRLSCAASGSIIGRNAMGWYRQAPGKERELVAAITWRTGSTFYADSVKGRFTISRDNAKNTVYLQMNSLKPEDTAVYYCNAAGPAYSYYHWLWGDYNSWRQGTQVTVSS | low polyreactivity
QVQLLESGGGLVQAGGTLRLSCAASGYTFTNNAMGWYRQAPGKERELVAGITRGGSTNYADSVKGRFTISRDNAKNTVSLQMNSLKPEDTAVYYWAADLRPNSQNGLLEDEMDYWGQGTQVTVSS | low polyreactivity
QVQLLESGGGLVQARGSLRISCAASGLTFFFYAMGWYRQAPGKERELVAAISFSGGSTYADSVKGRFTISRDNAKNTVYLQMNSLKPEDTAVYYCNAPPQFATFTYANWRQGTQVTVSS | low polyreactivity
QVQLLESGGGLVQPGGSLRLSCAASGSIFGLNAMGLYRQEPGKETELVAAISGGSTNYADSVKGRFTISRDNAKNTVYFQMISLKPEDTAVYYCAAPRTKYLSNYGFWGEGTQVTVSS | high polyreactivity
QVQLLESGGGLVQSGGSLRLSCADSGNIFVTYAMGWYRQAPGKESELVAGITSSDDSTYYADSVKVRFTISLDNAKNTVYLQMNSLKPEDTAVYYCATYYWEVGIGQFYYWGQGTQVTVSS | low polyreactivity
QVQLLESGGGVVQAGGSLRLSCASSGFTFRINAMGWYRPAPGKERELVAANSGRGGSTYYADSVKGRFTISRDYAKNTVYLQMNSLKPEDTAVYYCAAKGSSSLSYYYWGQGTQVTVSS | high polyreactivity
QVQLLESGGVLVQAGGSLLLSCAASGSIFSPYAMGRYRQAPGKERELVATISTIDGSTTYADSVKGRFTISRDYAKNTVYLQMKSLKPEDTAVYYCNAEYAYFKLWANPYDMDYWGQGTQVTVSS | low polyreactivity
QVQLLESGRGLVQAGGSLRLSCAPSGSIFSGMVMGWYIQAPGKERELVAAISSRGGNTYYADSVKGRFTISRDNAKNTVYLQMNSLITEDTAVYYCNKVKFNWYEWGQGTQVSVSS | high polyreactivity
QVQLLESGVGLDQAGGSLRLSCAASGSTFNRNAMGWYRQAPGKERELVAAITYSGGSTYYADSVKGRFTISRDNAKNTVYLQMNSLNPEDTAVYYCNAPYAGMGYWGQGTQVTVSS | low polyreactivity
QVQLLETGRGLVQAGGSLRISCAASGYTFGVYVMGWYRQAPGQERELVAAISGSTYYADSVNGRFKISRDNAKNTVYLQMNSLKPEDTAVYYCAAESFFFSPRTREIFDYWGQGTQVTVSS | low polyreactivity
QVQLQDSGGGLVQAGGSLGLSCAASGYIFGSGSMGWFRQAPGKERELVATINNGSSTYYADSVKGRFTISRDNSKNTVSLQMNSLKPEDTAVYYCAVYLYRLTFFYYWGQGNQVTVSS | high polyreactivity
QVQLQDSGGGLVQAGGSLRLSCAASGTISYRYRMGWYRQAPRKEVELVAGIRVGSITYDADSVKGRFTISRDNAKNTVYLQMNSLKPEDIAVYYCAVYQKSYRFFPYWGQGTQVTVSS | high polyreactivity
QVQLQDSGGVQAGGSLRLSCAASGYISRSDVMGWYRQAPGKERELVATIINGTITYYADSVKGRFPISRDNAKNTVYLQMNSLNPEDTAVQYCAVVQSDTDSLYYWGQGTQVTVSS | low polyreactivity
QVQLQDSVGCLVQAGGSLRLSCAASGSISIYGYMGWYRQAPGNERELVAAITAGGSTYYADSVKGRFTISRDNAKNTVYLLMKSLKPEDTAVYYCAPYEQRVYDLHYWGQGTQVTVSS | high polyreactivity
QVQLQECGGGLVQAGGSLRLSCAASGNIFDAYIMGWYRQAPGKERELVASVTDGGSTNYADSVKGRFTISRDNAKNTVYLQMNSLKPEDTAVYYCAAIVYPDILTYFDYDYDYFYWGQGTQVTVGS | low polyreactivity
QVQLQECGGGLVQAGGSLRLSCAASVNIFDADIMGSYRQAPGKERELVASVTDGGSTNYADSVKGRFTISRDNAKNTVYLQMNSLKPEDTAVYYCAGIVYPDILTFFDYDYDYFYWGQGTQVTVGS | low polyreactivity

Sequence | polyreactivity (PSR sort gate)
QVQLQECGGGLVQAGGSLRLSCAASVNIFDADIMGWYRQAPGKERELVASVTDGGSTNYADSVKGRFTISRDNAKNTVYLQMNSLKPEDTAVYYCAAIVYPDILTYFEYDYDYFYWGQGTQVTVGS | low polyreactivity
QVQLQEIGGGLVQAGGSLRLRCAASRNISGSSDLGWYHQAPGKEREFVASITSGGTTYYADSVKGRFTISRDNAKKTVYLQMNSLKAEDTAVYYCAVGDPADAEFGYWGQGTQVTVSS | low polyreactivity
QVQLQEIGGGLVQAGGSLRLSCAASGYIIPYYSMRWYRQAPGKERGLVACIAAGTTTNFADCVKGRFTISRDNAKNTVYLQMNSLKPEDAAVYFCAALNAFKTGDWYWGQGTQVTVSS | low polyreactivity
QVQLQERGGGLVQAGGSLLSCAASGTISYYREMGWYRQAPGKERELVAGIGVGTITYYADSVKGRFTISRDNAKNTVYLQMNRLKPEDTAVYFCAAHIDGNDSHAYWGQGTQVTVSS | low polyreactivity
QVQLQERGGGLVQAGGSLRMSCAASGSIFVSVTMGWYRQAPGKERELVASIGRGSTTNHADSVKGLFTISRDNAKNIVYLLMNSLKPEDTAVYYCAALESYGKYHGYWGQGTQVTVSS | low polyreactivity
QVQLQERGGGLVQAGGSLRQSCAAIGYIFPYYSMGWYRQATGKERGLVACIAAGTTTNYADSVKGRFTISRDNAINTVYLQMNSLKPEDAAVYYCAALNAFKTGHWYWGQGTQVTVSS | low polyreactivity
QVQLQESAGGLEQAGGSLRLSCAASAYISDIGTKGWYRQAPRKEREFVATIVVGSTTNYADSVKGRFTISRDNAKNTVYLQPESGRYRGVFLRGWLLPVGKFTYWGQGTQETVSS | low polyreactivity
QVQLQESAGGLVQAGGSLRLRCSASGYISCDASMGSYRQAPGKERELAASITKGSSTNYADSVKGRFTIRDNAKNTVYLQMNSLKPEDTAVCYCAVTYPYWGDYTYWGQGTQVTVSS | low polyreactivity
QVQLQESAGGRQPAPELRGERLYFWLLLMGWYRQAPGEERELVAGINDGASTNYADSVKGRFTISRDNARNTVYLKMNSLKPGDTAVYYCAVWQPVLIWFYYWGQGTQVTVSS | high polyreactivity
QVQLQESCGGLVQEAGSLRLSCAASGNISPPADMGWYRQAPGKQRELVASIGTGGTTNYADSEKGRFTISRDNAKNTVYLQMNSLKPEDSAVYYCNVDIGVYAYESDYWGQGTQVTVSS | low polyreactivity
QVQLQESGAALVQAGGSLRLSCAASGNIFVDAYMGWYRQAPGKERELVATIAPADSVKGRFTISRDNAKNTVYLQMNRLKPEDTAVYYCAAFTGYSSVFGFWGQGIQVTVSS | high polyreactivity
QVQLQESGAGLVKAGGSLRLSCAASGNISNHNDMGWYRQAPGKEREFVAGITAGGITNYADSVKRRFTISRDNAKNSVYLQMKSLKPEDTAVYYCAAYPDYDKSYGYWGQGTQATVSS | low polyreactivity
QVQLQESGAGLVQAGGSLRLICAASGNIFRGDYVGWYHQAPGKEREFVASITGGGNTNFADSVKGRYSISRDNAKKTVYLKMNSLKPEDTAVYYCAVFDAWLARLIFWGQGSQVTVSS | high polyreactivity
QVQLQESGAGLVQAGVSLRLSCAASGYISTFSSEMGWYRQAPGKDRELVASIAPGCTTSYADSVKGRFTISRDKAKNTVFLQMNSLKPEDTAVYYCAVDYTVPASFGYWGQGTQVTVSS | high polyreactivity
QVQLQESGGALVQAGGSLRLSCAASGNIYDADIMGWYRQAPGKERELVTSITDGGSTNYADSVKGRFTISRDNAKNTVYLQMNSLKPQDTAVYYCAAIAYPDIPTSFDYNSDYSYWGQGTQVTVSS | low polyreactivity
QVQLQESGGALVQAGGSLRLSCAASGTISDRAGMGWYRQAPAKNANVATIDRGTNTNYADSVKGRFTISRDNAKNTVYLQMNSLKPEDTAVYNCAADGRYYIYLDYWGQGTQVTVSS | low polyreactivity
QVQLQESGGCLVQAGGSLRKSCAASGNIFDADIMGWYRQAPGKERELVASITDGRRTNYADSVKGRYTISRDSENNTVYLQLNSLKAEDTAVYYCAAIAYPVVPTYFDYDSDFFHWGQGTQVTVSS | high polyreactivity
QVQLQESGGDLEQAGGSLRLSCTASGTISDVRVMGWSRQAPGKERELVATISYVTITYYADSVKGRFTISRDSEKHRVSADDEPETGRYRGVLFRYYWGLGTQVTVSS | low polyreactivity
QVQLQESGGGLEQAGGSLRLSCAASGYISDIGPMGWSRQAPGKEREFVATIVVGSTTNYADSVKGRFTISRDNAKNTVYLQPESGRFRGVLLRGWLLAVGKFTYWGQGTQETVSS | low polyreactivity
QVQLQESGGGLEQAGGSLRLSCAASGYISDIGTMGWYRQAPAKEREFVATIVVGSTTNYADSVKGRFTISRDNAKNTVYLQPESGRYRGVLLSGWLLAVGKFTYWGQGTQETVSS | low polyreactivity
QVQLQESGGGLLLAGGSLRLSCSASGNISVYGSMGWYRQAPGKEREFVATIDPGTNTNYADSVKDRFTISRDNAKNTVYLQMNSLKPEDTAVYYCAVEAGSDWPYRYWGQGTQVTVSS | low polyreactivity
